Results as given in patent US20230241243A1, “CARRIER PARTICLE-DRUG CONJUGATES, SELF-IMMOLATIVE LINKERS, AND USES THEREOF” (priority 2020, published 2023).

Experiment: Drug-release assay of nanoparticle-conjugated linker-payloads under cleavage conditions (Cat-B, redox-responsive or pH-sensitive cleaving study), RP-HPLC
Format: in vitro ADME
Conditions: 37° C.; for % of Payload Release in 24 Hours Under Cleavage Conditions: linker-payload conjugated to DBCO-functionalized silica nanoparticle
Description: To assess the drug releasing profile of exemplary linker-drug conjugates, the linker-drug conjugates were each conjugated to a DBCO-functionalized ultrasmall silica nanoparticle via a click chemistry reaction between the azide groups on the linker-drug conjugate precursors and the dibenzocyclooctyne (DBCO) groups of the nanoparticles. The resulting drug-nanoparticle-conjugates were then incubated under the desired releasing conditions for release kinetics tests.
The amount of released drugs vs non-released drugs was measured using reverse phase HPLC by analyzing the area under curve (AUC) (FIG. 10A and FIG. 10B).
General Method: A Waters Xbridge Peptide BEH C18 column with 4.6 mm×50 mm dimensions, a particle size of 5 μm, and a pore size of 300 A was used (part number 186003622). Acetonitrile (VWR HiPerSolv Chromanorm, UHPLC Grade) was used as received without further preparation, […] trifluoroacetic acid in deionized water was prepared by adding 1 mL of trifluoroacetic acid (HPLC grade, Millipore-Sigma) into 999 mL 18.2 MΩ·cm deionized water that was generated using an IQ7000 Millipore deionized water system and passed through a 0.2 μm filter before use. The seal wash used for the system was composed of 90% 18.2 MΩ·cm deionized water and 10% methanol (HPLC grade, VWR). The injection needle was washed using a mixture of 25 vol % 18.2 MΩ·cm deionized water, 25 vol % acetonitrile, 25 vol % methanol, and 25 vol % 2-propanol. Samples were prepared in a concentration range of 0.25 to 2 μM and the injection volume ranges from 60 μL to 10 μL, respectively. Higher sample concentration can be used if detector signal is low. Vials used for all injections are fresh Waters Total Recovery vials with screw caps that have pre-slit PTFE septa (part number 186000385C).
Method for Protease-cleavable and Redox-responsive Linkers: Before any sample injections were started, the PDA lamp was turned on and allowed to warm up for at least 30 minutes. The system and column were equilibrated with 95% 0.01% TFA in deionized water, 5% acetonitrile for at least 10 minutes at a flow rate of 1.0 mL/min after the PDA lamp had warmed up. Two blank injections, with injection volumes of 10 μL containing only 18.2 MΩ·cm deionized water, were performed before the injection of any samples for analysis. The gradient used to elute protease-cleavable and redox-sensitive linkers conjugated to hybrid silica nanoparticles, and their components began at 95% 0.01% TFA in deionized water and 5% acetonitrile and linearly changed to 15% 0.01% TFA in deionized water, 85% acetonitrile over 8 minutes. Acetonitrile composition was increased to 95% over an additional minute and held at 95% for an additional 2 minutes to ensure that any strongly retained compounds are eluted. The composition of the solvent was then changed back to the starting composition of the gradient over an additional minute and allowed to equilibrate for 3 minutes before another injection began. Between sample injections a blank injection was run to ensure that no carryover occurred.
Method for pH-sensitive Linkers: Before any sample injections were started, the PDA lamp was turned on and allowed to warm up for at least 30 minutes. A gradient of pure deionized water and acetonitrile was used, all other consumables including column and vials were the same as for the method to purify Cat-B sensitive and redox-responsive linkers elaborated on above. Briefly the gradient composition began at 95% deionized water and 5% acetonitrile at a flow rate of 1.0 mL/min (not changed throughout the method). The composition was changed from this starting composition to 15% deionized water and 85% acetonitrile over a 12-minute period, during which the retained drug-linkers, released drug, free drug linker, and any other impurities eluted. At the 12-minute mark the composition was rapidly changed to 5% deionized water and 95% acetonitrile over the course of one minute. […]

| Structure (SMILES) | % of Payload Release in 24 Hours Under Cleavage Conditions | % of Payload Release Under Cleavage Conditions (linker-payload conjugated to nanoparticle, @ 3 Hrs) |
| --- | --- | --- |
| CCc1c2c(nc3ccc(OC(C(=O)N(C)C)c4ccc(NC(=O)[C@H](CCCNC(N)=O)NC(=O)[C@@H](NC(=O)CCOCCOCCOCCOCCOCCOCCOCCOCCOCCOCCOCCN=[N+]=[N-])C(C)C)cc4)cc13)-c1cc3c(c(=O)n1C2)COC(=O)[C@]3(O)CC (stereo partly drawn) [Example 20, 1-azido-N-((2S)-1-(((2S)-1-((4-(1-(((s)-4,11-diethyl-4-hydroxy-3,14-dioxo-3,4,12,14-tetrahydro-1H-pyrano[3′,4′:6,7]indolizino[1,2-b]quinolin-9-yl)oxy)-2-(dimethylamino)-2-oxoethyl)phenyl)amino)-1-oxo-5-ureidopentan-2-yl)amino)-3-methyl-1-oxobutan-2-yl)-3,6,9,12,15,18,21,24,27,30,33-undecaoxahexatriacontan-36-amide] | + (‘+’ indicates 5-25% release) | – |
| CCc1c2c(nc3ccc(OCC(=O)N/N=C(/C)c4ccc(OCCOCCOCCOCCOCCOCCN=[N+]=[N-])cc4)cc13)-c1cc3c(c(=O)n1C2)COC(=O)[C@]3(O)CC [Example 64, (S,Z)-N′-(1-(4-((17-azido-3,6,9,12,15-pentaoxaheptadecyl)oxy)phenyl)ethylidene)-2-((4,11-diethyl-4-hydroxy-3,14-dioxo-3,4,12,14-tetrahydro-1H-pyrano[3′,4′:6,7]indolizino[1,2-b]quinolin-9-yl)oxy)acetohydrazide] | – | +++ @ 3 Hrs (‘+++’ indicates 51-75% release) |
| CCc1c2c(nc3ccc(OCc4ccc(NC(=O)[C@H](CCCNC(N)=O)NC(=O)[C@@H](NC(=O)CCOCCOCCOCCOCCOCCN=[N+]=[N-])C(C)C)cc4)cc13)-c1cc3c(c(=O)n1C2)COC(=O)[C@]3(O)CC [Example 47, 1-azido-N-((S)-1-(((S)-1-((4-((((S)-4,11-diethyl-4-hydroxy-3,14-dioxo-3,4,12,14-tetrahydro-1H-pyrano[3′,4′:6,7]indolizino[1,2-b]quinolin-9-yl)oxy)methyl)phenyl)amino)-1-oxo-5-ureidopentan-2-yl)amino)-3-methyl-1-oxobutan-2-yl)-3,6,9,12,15-pentaoxaoctadecan-18-amide] | + (‘+’ indicates 5-25% release) | – |
| CCc1c2c(nc3ccc(OCCCNC(=O)OCc4ccc(NC(=O)[C@H](CCCNC(N)=O)NC(=O)[C@@H](NC(=O)CCOCCOCCOCCOCCOCCOCCOCCOCCOCCOCCOCCN=[N+]=[N-])C(C)C)cc4)cc13)-c1cc3c(c(=O)n1C2)COC(=O)[C@]3(O)CC [Example 17, 4-((38S,41S)-1-azido-38-isopropyl-36,39-dioxo-41-(3-ureidopropyl)-3,6,9,12,15,18,21,24,27,30,33-undecaoxa-37,40-diazadotetracontan-42-amido)benzyl (3-(((S)-4,11-diethyl-4-hydroxy-3,14-dioxo-3,4,12,14-tetrahydro-1H-pyrano[3′,4′:6,7]indolizino[1,2-b]quinolin-9-yl)oxy)propyl)carbamate] | ++ (‘++’ indicates 26-50% release) | – |
| CC[C@@]1(O)C(=O)OCc2c1cc1n(c2=O)Cc2c-1nc1cc(F)c(C)c3c1c2[C@@H](NCc1c(F)cc(NC(=O)[C@H](CCCNC(N)=O)NC(=O)[C@@H](NC(=O)CCOCCOCCOCCOCCOCCOCCOCCOCCOCCOCCOCCN=[N+]=[N-])C(C)C)cc1F)CC3 [Example 23, 1-azido-N-((S)-1-(((S)-1-((4-((((1S,9S)-9-ethyl-5-fluoro-9-hydroxy-4-methyl-10,13-dioxo-2,3,9,10,13,15-hexahydro-1H,12H-benzo[de]pyrano[3′,4′:6,7]indolizino[1,2-b]quinolin-1-yl)amino)methyl)-3,5-difluorophenyl)amino)-1-oxo-5-ureidopentan-2-yl)amino)-3-methyl-1-oxobutan-2-yl)-3,6,9,12,15,18,21,24,27,30,33-undecaoxahexatriacontan-36-amid] | + (‘+’ indicates 5-25% release) | – |
| CC[C@@]1(O)C(=O)OCc2c1cc1n(c2=O)Cc2c-1nc1cc(F)c(C)c3c1c2[C@@H](NC(=O)CSSC(C)(C)CNC(=O)CCOCCOCCOCCOCCOCCOCCOCCOCCOCCOCCOCCOCCN=[N+]=[N-])CC3 [Example 60, 1-azido-N-(2-((2-(((1S,9S)-9-ethyl-5-fluoro-9-hydroxy-4-methyl-10,13-dioxo-2,3,9,10,13,15-hexahydro-1H,12H-benzo[de]pyrano[3′,4′:6,7]indolizino[1,2-b]quinolin-1-yl)amino)-2-oxoethyl)disulfaneyl)-2-methylpropyl)-3,6,9,12,15,18,21,24,27,30,33,36-dodecaoxanonatriacontan-39-amide] | +++ (‘+++’ indicates 51-75% release) | – |
| CCc1c2c(nc3ccc(OCCCSSC(C)(C)CNC(=O)CCOCCOCCOCCOCCOCCOCCOCCOCCOCCOCCOCCN=[N+]=[N-])cc13)-c1cc3c(c(=O)n1C2)COC(=O)[C@]3(O)CC [Example 56, (S)-1-azido-N-(2-((3-((4,11-diethyl-4-hydroxy-3,14-dioxo-3,4,12,14-tetrahydro-1H-pyrano[3′,4′:6,7]indolizino[1,2-b]quinolin-9-yl)oxy)propyl)disulfanyl)-2-methylpropyl)-3,6,9,12,15,18,21,24,27,30,33-undecaoxahexatriacontan-36-amide] | + (‘+’ indicates 5-25% release) | – |
| CCc1c2c(nc3ccc(OCCCNC(=O)OCc4ccc(NC(=O)[C@H](CCCCN)NC(=O)[C@H](Cc5c[nH]c6ccccc56)NC(=O)CCOCCOCCOCCOCCOCCOCCOCCOCCOCCN=[N+]=[N-])cc4)cc13)-c1cc3c(c(=O)n1C2)COC(=O)[C@]3(O)CC [Example 32, 4-((32S,35S)-32-((1H-indol-3-yl)methyl)-35-(4-aminobutyl)-1-azido-30,33-dioxo-3,6,9,12,15,18,21,24,27-nonaoxa-31,34-diazahexatriacontan-36-amido)benzyl (3-(((S)-4,11-diethyl-4-hydroxy-3,14-dioxo-3,4,12,14-tetrahydro-1H-pyrano[3′,4′:6,7]indolizino[1,2-b]quinolin-9-yl)oxy)propyl)carbamate] | + (‘+’ indicates 5-25% release) | – |
| CCc1c2c(nc3ccc(OC(C(=O)OC)c4ccc(NC(=O)[C@H](CCCNC(N)=O)NC(=O)[C@@H](NC(=O)CCOCCOCCOCCOCCOCCOCCOCCOCCOCCOCCOCCN=[N+]=[N-])C(C)C)cc4)cc13)-c1cc3c(c(=O)n1C2)COC(=O)[C@]3(O)CC (stereo partly drawn) [Example 14-R isomer, Methyl 2-(4-((38S,41S)-1-azido-38-isopropyl-36,39-dioxo-41-(3-ureidopropyl)-3,6,9,12,15,18,21,24,27,30,33-undecaoxa-37,40-diazadotetracontan-42-amido)phenyl)-2-(((S)-4,11-diethyl-4-hydroxy-3,14-dioxo-3,4,12,14-tetrahydro-1H-pyrano[3′,4′:6,7]indolizino[1,2-b]quinolin-9-yl)oxy)acetate] | + (‘+’ indicates 5-25% release) | – |
| CC[C@@]1(O)C(=O)OCc2c1cc1n(c2=O)Cc2c-1nc1cc(F)c(C)c3c1c2[C@@H](NCc1ccc(NC(=O)[C@H](CCCNC(N)=O)NC(=O)[C@@H](NC(=O)CCOCCOCCOCCOCCOCCOCCOCCOCCOCCN=[N+]=[N-])C(C)C)cn1)CC3 [Example 46, 1-azido-N-((S)-1-(((S)-1-((6-((((1S,9S)-9-ethyl-5-fluoro-9-hydroxy-4-methyl-10,13-dioxo-2,3,9,10,13,15-hexahydro-1H,12H-benzo[de]pyrano[3′,4′:6,7]indolizino[1,2-b]quinolin-1-yl)amino)methyl)pyridin-3-yl)amino)-1-oxo-5-ureidopentan-2-yl)amino)-3-methyl-1-oxobutan-2-yl)-3,6,9,12,15,18,21,24,27-nonaoxatriacontan-30-amide] | + (‘+’ indicates 5-25% release) | – |
